In US20180320179A1, “LANOSTEROL 14-ALPHA DEMETHYLASE (CYP51) NUCLEIC ACID MOLECULES THAT CONTROL PATHOGENS” (Dow AgroSciences LLC, priority 2017, published 2018):

B1: MgCyp51-T13: dsRNA tile of Zymoseptoria tritici Cyp51, 119 bp, location 1517-1635 (nucleic acid, listed as Zymoseptoria tritici)
chain: ACAATGTGGATGGCAGCGACAACGTGGTGGGTACGGATTACAGCAGTTTGTTCAGCCGGCCGCTGTCGCCGGCAGTAGTAAAGTGGGAGAGGAGGGAGGAGAAGGAGGAGAAGAACTGA
modifications: long dsRNA tile, purified, chemistry not given here
B2: MgCyp51-T5: dsRNA tile of Zymoseptoria tritici Cyp51, 133 bp, location 1316-1448 (nucleic acid, listed as Zymoseptoria tritici)
chain: AATACAAGCACCTGTCCCCGACGACTGCCCTAGGAAGCATCGCCGAGGAGAAAGAAGACTATGGCTACGGCCTGGTAAGCAAGGGCGCGGCGTCGCCATACTTACCCTTTGGTGCGGGACGACACAGATGTAT
B3: MgCyp51-T8: dsRNA tile of Zymoseptoria tritici Cyp51, 242 bp, location 1151-1392 (nucleic acid, listed as Zymoseptoria tritici)
chain: TTCTGCGCAAGGTCAAGTCTCCCATGCCCATCGAAGGTACGGCATACGTCATTCCAACCACCCACACTCTTCTGGCCGCTCCGGGCACAACGAGCCGCATGGACGAGCACTTTCCCGACTGCCTCCATTGGGAGCCGCATCGATGGGACGAGAGCCCGTCCGAGAAATACAAGCACCTGTCCCCGACGACTGCCCTAGGAAGCATCGCCGAGGAGAAAGAAGACTATGGCTACGGCCTGGTA
B4: MgCyp51-T11: dsRNA tile of Zymoseptoria tritici Cyp51, 172 bp, location 775-946 (nucleic acid, listed as Zymoseptoria tritici)
chain: TCCGAGACATACATGTCGATCATTCAGAAGAGACGAGAGTCCAAAACGGGCGAACATGAGGAAGACATGATCCACAACTTGATGCAGTGCAAATACAAGGACGGCAATGCCATTCCCGACAAGGAGATTGCTCATATGATGATTGCGCTGCTCATGGCCGGCCAGCACTCTT
B5: YFP: non-target dsRNA control (YFP, yellow fluorescent protein coding region) (nucleic acid)
chain: TGTAGAAATCCTTCAGCTCGGGGCCGTACTTGGCGAAGCACTGGGCGCCGTAGGTCAGGGTGGTCACCAGGGTGCTCCAGGGCACGGGCACATCGCCGGTGGTGCAGATGAACTGGGCATCCACCTTGCCCACGCTGGCATCGCCGTAGCCCTTGCCGCGGATGCTGAAGGTGTGGCCATCCACATTGCCCTCCATCTCCACCACGTAGGGGATCTTGCCGTGGAACAGCAGGGCGCCGCTGGAGCCCAT
modifications: double-stranded RNA; synthesized partial coding region
B6: MgCyp51-T12: dsRNA tile of Zymoseptoria tritici Cyp51, 138 bp, location 1377-1514 (nucleic acid, listed as Zymoseptoria tritici)
chain: TGGCTACGGCCTGGTAAGCAAGGGCGCGGCGTCGCCATACTTACCCTTTGGTGCGGGACGACACAGATGTATCGGCGAGCAATTCGCGTACGTGCAATTGCAGACCATTACAGCGACGATGGTTCGCGATTTCAAGTT
B7: MgCyp51-T6: dsRNA tile of Zymoseptoria tritici Cyp51, 280 bp, location 881-1160 (nucleic acid, listed as Zymoseptoria tritici)
chain: ATGCCATTCCCGACAAGGAGATTGCTCATATGATGATTGCGCTGCTCATGGCCGGCCAGCACTCTTCATCTGCGACCGAGTCCTGGATCACTCTCCGCCTCGCATCCCGCCCCGACATCCAAGACGAACTCCTCCAAGAACAAAAGGATATGCTCGGTGTGAACGCCGACGGCAGTATCAAGGAGCTCACATACGCCAACCTCTCGAAACTCACCCTCCTCAATCAAGTCGTCAAAGAAACCCTTCGTATTCACGCTCCAATCCACTCCATTCTGCGCAA

Key:
[1] = tested on: Zymoseptoria tritici (SEPTTR-184); assay: Cyp51 dsRNA tile (fragment) foliar application bioassay (Example 6); type: in vivo; conditions: for ED50 (ppm) SEPTTR-184 1DP / ED80 (ppm) SEPTTR-184 1DP / Disease Control (%) SEPTTR-184 1DP: 1 day protectant; for ED50 (ppm) SEPTTR-184 1DP / ED80 (ppm) SEPTTR-184 1DP / ED50 (ppm) SEPTTR-184 3DC / ED80 (ppm) SEPTTR-184 3DC: calculated from disease control; for Disease Control (%) SEPTTR-184 1DP / Disease Control (%) SEPTTR-184 3DC: average of 2 trials; for ED50 (ppm) SEPTTR-184 3DC / ED80 (ppm) SEPTTR-184 3DC / Disease Control (%) SEPTTR-184 3DC: 3 days curative
Description: The 200 ppm concentration for each treatment was prepared by adding the calculated volume of the corresponding dsRNA solution in TE buffer. […] A non-target dsRNA control (YFP), a TE/phosphate buffer control, disease pressure control, and clean plant control were included.
(§1) These plants were inoculated with an aqueous spore suspension of Zymoseptoria tritici either prior to or after fungicidal treatments. After inoculation the plants were kept in 100% relative humidity to allow spores to germinate and infect the leaves. The plants were then transferred to a greenhouse set at 20° C. until disease developed.

[2] = tested on: Zymoseptoria tritici (SEPTTR US-184); assay: Cyp51 dsRNA foliar application bioassay on wheat seedlings, isolate US-184 (Example 5); type: in vivo; conditions: compared to the non-treated control; isolate not given
Description: RNAi (dsRNA) fungicidal solutions were prepared in TE buffer (pH 8.0), which were then mixed with 9 volumes of phosphate buffer (pH 7.5) containing an adjuvant. The fungicidal solutions were applied to wheat seedlings using an automated booth sprayer to run-off. All sprayed plants were allowed to air dry prior to further handling.
The following served as controls: adjuvant in phosphate buffer control, disease pressure control (untreated), and clean plant control (negative control).
as §1

Molecule	ED50 (ppm) SEPTTR-184 1DP [1] [ppm]	ED80 (ppm) SEPTTR-184 1DP [1] [ppm]	Disease Control (%) SEPTTR-184 1DP ([1]; rate 3.125 ppm) [%]	Disease Control (%) SEPTTR-184 1DP ([1]; rate 12.5 ppm) [%]	Disease Control (%) SEPTTR-184 1DP ([1]; rate 50 ppm) [%]	Disease Control (%) SEPTTR-184 1DP ([1]; rate 200 ppm) [%]	ED50 (ppm) SEPTTR-184 3DC [1] [ppm]	ED80 (ppm) SEPTTR-184 3DC [1] [ppm]	Disease Control (%) SEPTTR-184 3DC ([1]; rate 3.125 ppm) [%]	Disease Control (%) SEPTTR-184 3DC ([1]; rate 12.5 ppm) [%]	Disease Control (%) SEPTTR-184 3DC ([1]; rate 50 ppm) [%]	Disease Control (%) SEPTTR-184 3DC ([1]; rate 200 ppm) [%]	control of Septoria leaf blotch on wheat seedlings [2]
B1	<3.125	>200	58	59	70	74	4.167	>200	45	54	64	59	
B2	<3.125	>200	61	66	70	77	<3.125	>200	52	64	68	78	control Septoria leaf blotch
B3	5.208	>200	46	64	65	74	<3.125	>200	61	68	73	73	control Septoria leaf blotch
B4	<3.125	>200	63	61	58	61	12.500	>200	47	50	55	42	
B5	>200	>200	0	15	23	27	>200	>200	15	19	19	35	
B6	<3.125	>200	59	64	63	64	24.219	>200	36	45	61	71	
B7	3.125	>200	50	55	71	74	29.167	>200	48	46	55	61	control Septoria leaf blotch
